# According to US20240400618A1 (GRIFOLS DIAGNOSTIC SOLUTIONS, published 2024):
# B1: pxENBCP23_hACE2_3A-mIgG(23) (Fc fusion)
# chain: QSTIEEQAKTFLDKFNHEAEDLFYQSSLASWNYNTNITEENVQNMNNAGDKWSAFLKEQSTLAQMYPLQEIQNLTVKLQLQALQQNGSSVLSEDKSKRLNTILNTMSTIYSTGKVCNPDAPAECLLLEPGLNEIMANSLDYNERLWAWESWRSEVGKALRPLYEEYVVLKNEMARANHYEDYGDYWRGDYEVNGVDGYDYSRGQLIEDVEHTFEEIKPLYEHLHAYVRAKLMNAYPSYISPIGCLPAHLLGDMWGRFWTNLYSLTVPFGQKPNIDVTDAMVDQAWDAQRIFKEAEKFFVSVGLPNMTQGFWENSMLTDPGNVQKAVCHPTAWDLGKGDFRILMCTKVTMDDFLTAHHEMGHIQYDMAYAAQPFLLRNGANEGFHEAVGEIMSLSAATPKHLKSIGLLSPDFQEDNETEINFLLKQALTIVGTLPFTYMLEKWRWMVFKGEIPKDQWMKKWWEMKREIVGVVEPVPHDETYCDPASLFHVSNDYSFIRYYTRTLYQFQFQEALCQAAKHEGPLHKCDISNSTEAGQKLFNMLRLGKSEPWTLALENVVGAKNMNVRPLLNYFEPLFTWLKDQNKNSFVGWSTDWSPYADVPEVSSVFIFPPKPKDVLTITLTPKVTCVVVDISKDDPEVQFSWFVDDVEVHTAQTQPREEQFNSTFRSVSELPIMHQDWLNGKEFKCRVNSAAFPAPIEKTISKTKGRPKAPQVYTIPPPKEQMAKDKVSLTCMITDFFPEDITVEWQWNGQPAENYKNTQPIMNTNGSYFVYSKLNVQKSNWEAGNTFTCSVLHEGLHNHHTEKSLSHSPGK
# B2: pxEBNCP9_hIL2-hACE2(18-615) (receptor)
# chain: QSTIEEQAKTFLDKFNHEAEDLFYQSSLASWNYNTNITEENVQNMNNAGDKWSAFLKEQSTLAQMYPLQEIQNLTVKLQLQALQQNGSSVLSEDKSKRLNTILNTMSTIYSTGKVCNPDAPAECLLLEPGLNEIMANSLDYNERLWAWESWRSEVGKALRPLYEEYVVLKNEMARANHYEDYGDYWRGDYEVNGVDGYDYSRGQLIEDVEHTFEEIKPLYEHLHAYVRAKLMNAYPSYISPIGCLPAHLLGDMWGRFWTNLYSLTVPFGQKPNIDVTDAMVDQAWDAQRIFKEAEKFFVSVGLPNMTQGFWENSMLTDPGNVQKAVCHPTAWDLGKGDFRILMCTKVTMDDFLTAHHEMGHIQYDMAYAAQPFLLRNGANEGFHEAVGEIMSLSAATPKHLKSIGLLSPDFQEDNETEINFLLKQALTIVGTLPFTYMLEKWRWMVFKGEIPKDQWMKKWWEMKREIVGVVEPVPHDETYCDPASLFHVSNDYSFIRYYTRTLYQFQFQEALCQAAKHEGPLHKCDISNSTEAGQKLFNMLRLGKSEPWTLALENVVGAKNMNVRPLLNYFEPLFTWLKDQNKNSFVGWSTDWSPYAD
# B3: pxEBNCP19_mIgGHC_hACE2-3A (receptor)
# chain: B2 chain
# B4: pxEBNCP10_tPa-hACE2(18-615)-AAA (receptor)
# chain: B2 chain
# B5: pxEBNCP25_hACE2-AAA(1-615) (receptor)
# chain: B2 chain
# B6: pxEBNCP22_hACE2_3A-mIgG(h23) (Fc fusion)
# chain: QSTIEEQAKTFLDKFNHEAEDLFYQSSLASWNYNTNITEENVQNMNNAGDKWSAFLKEQSTLAQMYPLQEIQNLTVKLQLQALQQNGSSVLSEDKSKRLNTILNTMSTIYSTGKVCNPDAPAECLLLEPGLNEIMANSLDYNERLWAWESWRSEVGKALRPLYEEYVVLKNEMARANHYEDYGDYWRGDYEVNGVDGYDYSRGQLIEDVEHTFEEIKPLYEHLHAYVRAKLMNAYPSYISPIGCLPAHLLGDMWGRFWTNLYSLTVPFGQKPNIDVTDAMVDQAWDAQRIFKEAEKFFVSVGLPNMTQGFWENSMLTDPGNVQKAVCHPTAWDLGKGDFRILMCTKVTMDDFLTAHHEMGHIQYDMAYAAQPFLLRNGANEGFHEAVGEIMSLSAATPKHLKSIGLLSPDFQEDNETEINFLLKQALTIVGTLPFTYMLEKWRWMVFKGEIPKDQWMKKWWEMKREIVGVVEPVPHDETYCDPASLFHVSNDYSFIRYYTRTLYQFQFQEALCQAAKHEGPLHKCDISNSTEAGQKLFNMLRLGKSEPWTLALENVVGAKNMNVRPLLNYFEPLFTWLKDQNKNSFVGWSTDWSPYADVPRDCGCKPCICTVPEVSSVFIFPPKPKDVLTITLTPKVTCVVVDISKDDPEVQFSWFVDDVEVHTAQTQPREEQFNSTFRSVSELPIMHQDWLNGKEFKCRVNSAAFPAPIEKTISKTKGRPKAPQVYTIPPPKEQMAKDKVSLTCMITDFFPEDITVEWQWNGQPAENYKNTQPIMNTNGSYFVYSKLNVQKSNWEAGNTFTCSVLHEGLHNHHTEKSLSHSPGK
# B7: pxEBNCP18_hACE2-AAA_p53 (receptor)
# chain: QSTIEEQAKTFLDKFNHEAEDLFYQSSLASWNYNTNITEENVQNMNNAGDKWSAFLKEQSTLAQMYPLQEIQNLTVKLQLQALQQNGSSVLSEDKSKRLNTILNTMSTIYSTGKVCNPDAPAECLLLEPGLNEIMANSLDYNERLWAWESWRSEVGKALRPLYEEYVVLKNEMARANHYEDYGDYWRGDYEVNGVDGYDYSRGQLIEDVEHTFEEIKPLYEHLHAYVRAKLMNAYPSYISPIGCLPAHLLGDMWGRFWTNLYSLTVPFGQKPNIDVTDAMVDQAWDAQRIFKEAEKFFVSVGLPNMTQGFWENSMLTDPGNVQKAVCHPTAWDLGKGDFRILMCTKVTMDDFLTAHHEMGHIQYDMAYAAQPFLLRNGANEGFHEAVGEIMSLSAATPKHLKSIGLLSPDFQEDNETEINFLLKQALTIVGTLPFTYMLEKWRWMVFKGEIPKDQWMKKWWEMKREIVGVVEPVPHDETYCDPASLFHVSNDYSFIRYYTRTLYQFQFQEALCQAAKHEGPLHKCDISNSTEAGQKLFNMLRLGKSEPWTLALENVVGAKNMNVRPLLNYFEPLFTWLKDQNKNSFVGWSTDWSPYADGGGSKPLDGEYFTLQIRGRERFEMFRELNEALELKDAQAGKEPG
# B8: pxEBNCP13_hACE2-AAA-SBP (receptor)
# chain: QSTIEEQAKTFLDKFNHEAEDLFYQSSLASWNYNTNITEENVQNMNNAGDKWSAFLKEQSTLAQMYPLQEIQNLTVKLQLQALQQNGSSVLSEDKSKRLNTILNTMSTIYSTGKVCNPDAPAECLLLEPGLNEIMANSLDYNERLWAWESWRSEVGKALRPLYEEYVVLKNEMARANHYEDYGDYWRGDYEVNGVDGYDYSRGQLIEDVEHTFEEIKPLYEHLHAYVRAKLMNAYPSYISPIGCLPAHLLGDMWGRFWTNLYSLTVPFGQKPNIDVTDAMVDQAWDAQRIFKEAEKFFVSVGLPNMTQGFWENSMLTDPGNVQKAVCHPTAWDLGKGDFRILMCTKVTMDDFLTAHHEMGHIQYDMAYAAQPFLLRNGANEGFHEAVGEIMSLSAATPKHLKSIGLLSPDFQEDNETEINFLLKQALTIVGTLPFTYMLEKWRWMVFKGEIPKDQWMKKWWEMKREIVGVVEPVPHDETYCDPASLFHVSNDYSFIRYYTRTLYQFQFQEALCQAAKHEGPLHKCDISNSTEAGQKLFNMLRLGKSEPWTLALENVVGAKNMNVRPLLNYFEPLFTWLKDQNKNSFVGWSTDWSPYADGGSGMDEKTTGWRGGHVVEGLAGELEQLRARLEHHPQGQREP
# B9: pxEBNCP15_hACE2-AAA-StrepTagII (receptor)
# chain: QSTIEEQAKTFLDKFNHEAEDLFYQSSLASWNYNTNITEENVQNMNNAGDKWSAFLKEQSTLAQMYPLQEIQNLTVKLQLQALQQNGSSVLSEDKSKRLNTILNTMSTIYSTGKVCNPDAPAECLLLEPGLNEIMANSLDYNERLWAWESWRSEVGKALRPLYEEYVVLKNEMARANHYEDYGDYWRGDYEVNGVDGYDYSRGQLIEDVEHTFEEIKPLYEHLHAYVRAKLMNAYPSYISPIGCLPAHLLGDMWGRFWTNLYSLTVPFGQKPNIDVTDAMVDQAWDAQRIFKEAEKFFVSVGLPNMTQGFWENSMLTDPGNVQKAVCHPTAWDLGKGDFRILMCTKVTMDDFLTAHHEMGHIQYDMAYAAQPFLLRNGANEGFHEAVGEIMSLSAATPKHLKSIGLLSPDFQEDNETEINFLLKQALTIVGTLPFTYMLEKWRWMVFKGEIPKDQWMKKWWEMKREIVGVVEPVPHDETYCDPASLFHVSNDYSFIRYYTRTLYQFQFQEALCQAAKHEGPLHKCDISNSTEAGQKLFNMLRLGKSEPWTLALENVVGAKNMNVRPLLNYFEPLFTWLKDQNKNSFVGWSTDWSPYADGGSGWSHPQFEK
# B10: pxEBNCP24_hACE2-AAA-p53-SBP (receptor)
# chain: QSTIEEQAKTFLDKFNHEAEDLFYQSSLASWNYNTNITEENVQNMNNAGDKWSAFLKEQSTLAQMYPLQEIQNLTVKLQLQALQQNGSSVLSEDKSKRLNTILNTMSTIYSTGKVCNPDAPAECLLLEPGLNEIMANSLDYNERLWAWESWRSEVGKALRPLYEEYVVLKNEMARANHYEDYGDYWRGDYEVNGVDGYDYSRGQLIEDVEHTFEEIKPLYEHLHAYVRAKLMNAYPSYISPIGCLPAHLLGDMWGRFWTNLYSLTVPFGQKPNIDVTDAMVDQAWDAQRIFKEAEKFFVSVGLPNMTQGFWENSMLTDPGNVQKAVCHPTAWDLGKGDFRILMCTKVTMDDFLTAHHEMGHIQYDMAYAAQPFLLRNGANEGFHEAVGEIMSLSAATPKHLKSIGLLSPDFQEDNETEINFLLKQALTIVGTLPFTYMLEKWRWMVFKGEIPKDQWMKKWWEMKREIVGVVEPVPHDETYCDPASLFHVSNDYSFIRYYTRTLYQFQFQEALCQAAKHEGPLHKCDISNSTEAGQKLFNMLRLGKSEPWTLALENVVGAKNMNVRPLLNYFEPLFTWLKDQNKNSFVGWSTDWSPYADGGGSKPLDGEYFTLQIRGRERFEMFRELNEALELKDAQAGKEPGGGSGMDEKTTGWRGGHVVEGLAGELEQLRARLEHHPQGQREP
# Target: T1, pxENB17-RBD-His (SARS-CoV-2, UniProt P0DTC2 319-541)
# Assay: not given
row,Binder,Kd [nM]
1,B1,24.5
2,B2,45.1
3,B3,56.2
4,B4,60.8
5,B5,73.3
6,B6,0.953
7,B7,0.001

# Target: T2, pxENB9-FLS-CT-His (SARS-CoV-2, UniProt P0DTC2 15-1213)
# Assay: not given
row,Binder,Kd [nM]
1,B1,38.7
2,B6,0.001
3,B7,0.001

# Target: T2, pxENB9-FLS-CT-His
# Assay: not given
# Remark: another data set of the same source
row,Binder,Kd [nM]
1,B8,10500
2,B9,4710
3,B10,0.001

# Target: T1, pxENB17-RBD-His
# Assay: not given
# Remark: another data set of the same source
row,Binder,Kd [nM]
1,B8,401
2,B9,110
3,B10,0.231

# Target: T1, pxENB17-RBD-His
# Assay: BLI (Octet), ACE2 construct loaded on SA tips by its tag, RBD as analyte
row,Binder,"Response, shift in Wavelength (nm)"
1,B8,0.0102
2,B9,0.0062
3,B10,0.028
